Patent US20220195043A1 (BEIJING MABWORKS BIOTECH, published 2022)
Substitutions are numbered along the chain they refer to. Like-named read-outs stand apart in the source and are kept apart here.

T1: monkey CD3ε-his (Cat #: 90047-C08H, SinoBiological, China) (monkey, UniProt Q95LI5 22-117)
T1 construct: Bought protein; also called monkey CD3ε protein; recombinant monkey CD3ε
T1 sequence: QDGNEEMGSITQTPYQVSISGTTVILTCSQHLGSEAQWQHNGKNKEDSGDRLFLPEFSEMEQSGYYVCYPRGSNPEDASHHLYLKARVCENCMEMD

T2: monkey CD20 (HEK293A/monkey CD20 cells) (monkey, UniProt P11836 1-297 (human entry))
T2 construct: Stably expressed on HEK293A cells; also called cynomolgus CD20
T2 chain: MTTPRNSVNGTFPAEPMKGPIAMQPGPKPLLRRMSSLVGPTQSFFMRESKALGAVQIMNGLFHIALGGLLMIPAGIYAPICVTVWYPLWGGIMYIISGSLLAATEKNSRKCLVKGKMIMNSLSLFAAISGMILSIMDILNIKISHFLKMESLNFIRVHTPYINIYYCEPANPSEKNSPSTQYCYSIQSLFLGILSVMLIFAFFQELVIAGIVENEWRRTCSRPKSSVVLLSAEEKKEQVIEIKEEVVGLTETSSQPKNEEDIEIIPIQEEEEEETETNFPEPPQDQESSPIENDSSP

T3: human CD20 (HEK293A/human CD20 cells) (human, UniProt P11836 1-297)
T3 construct: Stably expressed on HEK293A cells; also called hCD20; HEK293A/hCD20
T3 sequence: T2 chain with P25S, L31F, A51T, V157A, Y166N, R217K, S226N, V227I, V239T

B1: chimeric anti-CD3 antibody CD3-19 (full length, human IgG1) (antibody, V domains shown)
VH: EVKLLESGGGLVQPKGSLKLSCAASGFTFNSYAMNWVRQAPGKGLEWVARIRSKYNNYATYYADSVKDRFTISRDDSQSILYLQMNNLKTEDTAMYYCVRHGNFGNSYLSYWAYWGQGTLVTVSA
VL: QAVVTQESALTTSPGETVTLTCDSSTGAVTTSNYANWVQEKPDHLFTGLIGGTQRSAPGVPARFSGSLIGDKAALTITGAQTEDEAIYFCVLWYSNLWVFGGGTKLTVLG
notes: also called chimeric CD3-19 antibody; parent antibody
B2: MBS303-1 (bispecific antibody against CD3 and CD20, MIL220 + MIL221-1) (bispecific antibody, human IgG1, kappa, lambda, L234A L235A, N297A)
heavy 1: QVQLVQSGAEVKKPGSSVKVSCKASGYAFSYSWINWVRQAPGQGLEWMGRIFPGDGDTDYNGKFKGRVTITADKSTSTAYMELSSLRSEDTAVYYCARNVFDGYWLVYWGQGTLVTVSSASTKGPSVFPLAPSSKSTSGGTAALGCLVKDYFPEPVTVSWNSGALTSGVHTFPAVLQSSGLYSLSSVVTVPSSSLGTQTYICNVNHKPSNTKVDKKVEPKSCDKTHTCPPCPAPEAAGGPSVFLFPPKPKDTLMISRTPEVTCVVVDVSHEDPEVKFNWYVDGVEVHNAKTKPREEQYASTYRVVSVLTVLHQDWLNGKEYKCKVSNKALPAPIEKTISKAKGQPREPQVYTLPPSREEMTKNQVSLSCAVKGFYPSDIAVEWESNGQPENNYKTTPPVLDSDGSFFLVSKLTVDKSRWQQGNVFSCSVMHEALHNHYTQKSLSLSPGK
light 1: DIVMTQTPLSLPVTPGEPASISCRSSKSLLHSNGITYLYWYLQKPGQSPQLLIYQMSNLVSGVPDRFSGSGSGTDFTLKISRVEAEDVGVYYCAQNLELPYTFGGGTKVEIKRTVAAPSVFIFPPSDEQLKSGTASVVCLLNNFYPREAKVQWKVDNALQSGNSQESVTEQDSKDSTYSLSSTLTLSKADYEKHKVYACEVTHQGLSSPVTKSFNRGEC
heavy 2: QVQLVQSGAEVKKPGSSVKVSCKASGYAFSYSWINWVRQAPGQGLEWMGRIFPGDGDTDYNGKFKGRVTITADKSTSTAYMELSSLRSEDTAVYYCARNVFDGYWLVYWGQGTLVTVSSGGGGSGGGGSGGGGSDIVMTQTPLSLPVTPGEPASISCRSSKSLLHSNGITYLYWYLQKPGQSPQLLIYQMSNLVSGVPDRFSGSGSGTDFTLKISRVEAEDVGVYYCAQNLELPYTFGGGTKVEIKGGGGSGGGGSGGGGSEVQLLESGGGLVQPGGSLRLSCAASGFTFNTYAMNWVRQAPGKGLEWVARIRSKYNNYATYYAISVKDRFTISRDNSKNTLYLQMNSLRAEDTAVYYCVKHGNFGNSYLSYWAYWGQGTLVTVSSASTKGPSVFPLAPSSKSTSGGTAALGCLVKDYFPEPVTVSWNSGALTSGVHTFPAVLQSSGLYSLSSVVTVPSSSLGTQTYICNVNHKPSNTKVDKKVEPKSCDKTHTCPPCPAPEAAGGPSVFLFPPKPKDTLMISRTPEVTCVVVDVSHEDPEVKFNWYVDGVEVHNAKTKPREEQYASTYRVVSVLTVLHQDWLNGKEYKCKVSNKALPAPIEKTISKAKGQPREPQVYTLPPSREEMTKNQVSLWCLVKGFYPSDIAVEWESNGQPENNYKTTPPVLDSDGSFFLYSKLTVDKSRWQQGNVFSCSVMHEALHNHYTQKSLSLSPGK
light 2: QAVVTQEPSLTVSPGGTVTLTCQSSTGAVTTNNYANWVQQKPGHAFRGLIGGTKQRAPGVPARFSGSLLGGKAALTLSGVQPEDEAEYYCVLWYSNLWVFGGGTKLTVLGQPKAAPSVTLFPPSSEELQANKATLVCLISDFYPGAVTVAWKADSSPVKAGVETTTPSKQSNNKYAASSYLSLTPEQWKSHRSYSCQVTHEGSTVEKTVAPT
notes: CD20:CD3 = 2:1
B3: MBS303-2 (bispecific antibody against CD3 and CD20, MIL220 + MIL221-2) (bispecific antibody, human IgG1, kappa, lambda, L234A L235A, N297A)
heavy 1: B2 heavy 1
light 1: B2 light 1
heavy 2: B2 heavy 2 with N337D, V356M, K361R
light 2: B2 light 2
notes: CD20:CD3 = 2:1

Legend:
[1] = target: T1, monkey CD3ε-his (Cat #: 90047-C08H, …); experiment: ELISA: plate coated with monkey CD3ε-his, antibody titrated, HRP goat anti-human IgG, OD 450
[2] = target: T1, monkey CD3ε-his (Cat #: 90047-C08H, …); experiment: as above; remark: listed apart in the source
[3] = target: T4, human TCR/CD3 complex on cell surfaces (primary human CD4+ T cells; Jurkat cells; human PBMCs) (human, UniProt P07766 23-207); experiment: FACS on primary human CD4+ T cells, PE goat anti-human IgG, MFI
T4 construct: whole, on cells; Native complex on cells; the γ, δ, ζ and TCR chains of the complex are present on the cells too; also called human CD3 complexes on cell surfaces; human CD3+ T cells

[4] = target: T5, human CD3ε-his (Cat #:10977-H08s, SinoBiological, China) (human, UniProt P07766 23-126); experiment: ELISA: plate coated with human CD3ε-his, antibody titrated, HRP goat anti-human IgG, OD 450
T5 construct: Bought protein; also called human CD3ε protein; recombinant human CD3ε; not shown: his tag

[5] = target: T5, human CD3ε-his (Cat #:10977-H08s, …); experiment: as above; remark: listed apart in the source
[6] = target: T5, human CD3ε-his (Cat #:10977-H08s, …); experiment: SPR (BIAcore 8K); human CD3ε-his coupled to CM5 chip, antibody injected
[7] = target: T5, human CD3ε-his (Cat #:10977-H08s, …); experiment: as above; remark: listed apart in the source
[8] = target: T5, human CD3ε-his (Cat #:10977-H08s, …); experiment: ELISA: plate coated with human CD3ε-his (hCD3ε-his), antibody titrated, HRP goat anti-human IgG, OD450
[9] = target: T2, monkey CD20 (HEK293A/monkey CD20 cells); experiment: FACS on HEK293A/monkey CD20 (CynoCD20) cells, PE anti-human IgG secondary antibody, MFI
[10] = target: T3, human CD20 (HEK293A/human CD20 cells); experiment: FACS on HEK293A/human CD20 cells, PE anti-human IgG secondary antibody, MFI
[11] = target: T3, human CD20 (HEK293A/human CD20 cells); experiment: cell-based or functional assay

T5 sequence (P07766 23-126 limits assumed): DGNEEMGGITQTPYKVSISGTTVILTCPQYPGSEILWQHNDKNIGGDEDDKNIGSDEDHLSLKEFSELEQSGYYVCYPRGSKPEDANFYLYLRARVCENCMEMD
T4 sequence (P07766 23-207, one chain of several): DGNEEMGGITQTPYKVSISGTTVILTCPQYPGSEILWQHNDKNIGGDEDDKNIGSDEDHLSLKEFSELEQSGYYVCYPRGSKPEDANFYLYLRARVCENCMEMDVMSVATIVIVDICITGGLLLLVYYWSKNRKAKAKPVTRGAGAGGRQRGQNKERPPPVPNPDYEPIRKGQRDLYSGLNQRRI

Row | Binder | EC50 (read off the curve) [1] | EC50 (read off the curve) [2] | EC50 (read off the curve) [3] | EC50 (read off the curve) [4] | EC50 (read off the curve) [5] | kon [6] | Kd [7] | EC50 (read off the curve) [8] | binding result [9] | EC50 (read off the curve) [10] | EC50 of killing of HEK293A/hCD20 cells by T cells, MBS303-1 alone [11] | EC50 of killing of HEK293A/hCD20 cells by T cells, MBS303-1 with 1 µg/ml MIL62 [11] | EC50 (read off the curve) [9] | EC50 of killing of HEK293A/hCD20 cells by T cells, MBS303-2 alone [11] | EC50 of killing of HEK293A/hCD20 cells by T cells, MBS303-2 with 1 µg/ml MIL62 [11]
1 | B1 | ~0.05 µg/mL | ~0.06 µg/mL | ~700 ng/mL | ~0.05 µg/mL | ~0.05 µg/mL | 119000 M⁻¹ s⁻¹ | – | – | – | – | – | – | – | – | –
2 | B2 | – | – | – | – | – | – | 1.99 nM | ~60 ng/mL | binds | ~40 ng/mL | 7.6 ng/mL | 3.2 ng/mL | – | – | –
3 | B3 | – | – | – | – | – | – | 1.79 nM | ~60 ng/mL | – | ~30 ng/mL | – | – | ~60 ng/mL | 9.8 ng/mL | 3.9 ng/mL
